Results: article PMC6145145
Numbering of substitutions follows the chain as printed.

How the values were obtained:
POT1 WT = target: T1, POT1 WT (human, UniProt Q9NUX5 1-634); test: EMSA
T1 sequence: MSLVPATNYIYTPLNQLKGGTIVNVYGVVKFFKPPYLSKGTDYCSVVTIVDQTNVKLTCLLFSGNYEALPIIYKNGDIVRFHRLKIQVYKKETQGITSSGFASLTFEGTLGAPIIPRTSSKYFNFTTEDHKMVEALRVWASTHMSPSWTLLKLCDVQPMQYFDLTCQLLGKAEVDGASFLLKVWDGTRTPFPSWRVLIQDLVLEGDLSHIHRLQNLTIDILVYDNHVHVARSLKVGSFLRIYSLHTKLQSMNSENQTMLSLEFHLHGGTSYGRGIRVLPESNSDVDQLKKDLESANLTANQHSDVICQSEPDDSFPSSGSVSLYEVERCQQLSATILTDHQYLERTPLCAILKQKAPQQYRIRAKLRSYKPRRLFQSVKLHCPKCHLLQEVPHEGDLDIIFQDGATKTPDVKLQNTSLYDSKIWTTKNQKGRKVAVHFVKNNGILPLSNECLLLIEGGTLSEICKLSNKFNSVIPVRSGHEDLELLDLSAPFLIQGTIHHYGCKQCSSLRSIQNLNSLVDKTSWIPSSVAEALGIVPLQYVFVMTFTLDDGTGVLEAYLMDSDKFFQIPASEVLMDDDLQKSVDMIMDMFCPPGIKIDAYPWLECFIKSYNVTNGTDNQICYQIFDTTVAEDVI

POT1-K90E = target: T2, POT1-K90E (human, UniProt Q9NUX5 1-634, K90E); test: EMSA
T2 sequence: T1 sequence with K90E

TTAGGGTTAGGGTTAGGG (ssDNA) [telomeric primer (TTAGGG)3]
binding result (POT1 WT): binds | binding result (POT1-K90E): binds
